# Source: paper PMC5017680, “treA Codifies for a Trehalase with Involvement in Xanthomonas citri subsp. citri Pathogenicity” (PLoS ONE, 2016)
# Test system: OC[C@H]1O[C@H](O[C@H]2O[C@H](CO)[C@@H](O)[C@H](O)[C@H]2O)[C@H](O)[C@@H](O)[C@@H]1O
# Experiment: purified protein
# Conditions: 25 °C, Glucose Liquiform kit solution, 0.03125-4 mM trehalose
substance,measurement,value
Xcc TreA (recombinant Xcc trehalase) (Xanthomonas citri subsp. citri 306),Km,77 µM
